Test results taken from the Immune Epitope Database (IEDB).

Key:
HLA-A*68:02 = experiment: IEDB peptide-MHC binding, purified MHC/competitive/radioactivity; ≥ and ≤ were set here for values at or beyond the usual limits of such assays
HLA-A*02:06 = experiment: as above
HLA-A*02:02 = experiment: as above
HLA-A*02:03 = experiment: IEDB peptide-MHC binding, cellular MHC/competitive/fluorescence; ≥ and ≤ were set here for values at or beyond the usual limits of such assays
HLA-A*02:01 [1] = experiment: as above
HLA-A*02:01 [2] = experiment: IEDB peptide-MHC binding, purified MHC/competitive/radioactivity; ≥ and ≤ were set here for values at or beyond the usual limits of such assays
[3] = source organism: Mammarenavirus lassaense
[4] = source organism: Mammarenavirus whitewaterense
[5] = source organism: Mammarenavirus choriomeningitidis
[6] = source organism: Vaccinia virus WR
[7] = source organism: Mammarenavirus brazilense

| Sequence | IC50 (HLA-A*68:02; [6]) | IC50 (HLA-A*02:06; [6]) | IC50 (HLA-A*02:02; [6]) | IC50 (HLA-A*02:01 [2]; [6]) | IC50 (HLA-A*02:03; [6]) | IC50 (HLA-A*02:01 [1]; [6]) | further results |
| --- | --- | --- | --- | --- | --- | --- | --- |
| CNYSKYWYL |  |  |  |  |  |  | IC50 (HLA-A*68:02; [3]): 4190 nM; IC50 (HLA-A*02:06; [3]): 2710 nM; IC50 (HLA-A*02:02; [3]): 3660 nM; IC50 (HLA-A*02:03; [3]): 7130 nM; IC50 (HLA-A*02:01 [1]; [3]): 16300 nM |
| FSAVISGSV |  |  |  |  |  |  | IC50 (HLA-A*68:02; [4]): 2.6 nM; IC50 (HLA-A*02:06; [4]): 161 nM; IC50 (HLA-A*02:02; [4]): 48 nM; IC50 (HLA-A*02:01 [2]; [4]): 83 nM; IC50 (HLA-A*02:03; [4]): 14100 nM |
| FLVLIMLII |  |  |  |  |  |  | IC50 (HLA-A*68:02; source organism: SARS-CoV1): 2570 nM; IC50 (HLA-A*02:06; source organism: SARS-CoV1): 1350 nM; IC50 (HLA-A*02:02; source organism: SARS-CoV1): 1630 nM; IC50 (HLA-A*02:01 [2]; source organism: SARS-CoV1): 2300 nM; IC50 (HLA-A*02:03; source organism: SARS-CoV1): 9730 nM |
| MSCDDVVFGI |  |  |  |  |  |  | IC50 (HLA-A*68:02; [5]): 54 nM; IC50 (HLA-A*02:06; [5]): 250 nM; IC50 (HLA-A*02:02; [5]): 1050 nM; IC50 (HLA-A*02:01 [2]; [5]): 1010 nM; IC50 (HLA-A*02:03; [5]): 12100 nM |
| IVSRSSRGV | 1020 nM | 476 nM | 264 nM | 1980 nM | 13200 nM |  |  |
| ETDDDGNYPL | 27 nM | 1160 nM | 3590 nM | 2170 nM | 28200 nM |  |  |
| KNATWCLEV |  |  |  |  |  |  | IC50 (HLA-A*68:02; [7]): 1390 nM; IC50 (HLA-A*02:06; [7]): 2320 nM; IC50 (HLA-A*02:02; [7]): 1620 nM; IC50 (HLA-A*02:03; [7]): 7020 nM; IC50 (HLA-A*02:01 [1]; [7]): 12800 nM |
| YALEPRKEI | 710 nM | 4110 nM | 3700 nM |  | 7070 nM | 9810 nM |  |
| ALYYVHSLL | 598 nM | 3260 nM | 26 nM | 229 nM | 15000 nM |  |  |
| MSPALFFTFL |  |  |  |  |  |  | IC50 (HLA-A*68:02; [7]): 102 nM; IC50 (HLA-A*02:06; [7]): 834 nM; IC50 (HLA-A*02:02; [7]): 547 nM; IC50 (HLA-A*02:03; [7]): 7640 nM; IC50 (HLA-A*02:01 [1]; [7]): 6380 nM |
| VCFWSTLFYV |  |  |  |  |  |  | IC50 (HLA-A*68:02; [4]): 525 nM; IC50 (HLA-A*02:06; [4]): 1130 nM; IC50 (HLA-A*02:02; [4]): 349 nM; IC50 (HLA-A*02:01 [2]; [4]): 904 nM; IC50 (HLA-A*02:03; [4]): 7020 nM |
| IASGQRCHFI | 4220 nM | 256 nM | 526 nM |  | 8320 nM | 18400 nM |  |
| YAVLSEYET | 246 nM | 1330 nM | 1780 nM |  | 35100 nM | 37200 nM |  |
| CAVIPFDDIV | 137 nM | 184 nM | 2920 nM | 1090 nM | 7420 nM |  |  |
| LTSVDIETA | 1240 nM | 311 nM | 4920 nM |  | 11500 nM | 24000 nM |  |
| SVDVDIYDA | 345 nM | 953 nM | 1200 nM |  | 11900 nM | 13300 nM |  |
| CTNDIYCDEI | 192 nM | 4760 nM | 2460 nM |  | 5720 nM | 9060 nM |  |
| SVDIETAIRA | 834 nM | 1030 nM | 2830 nM |  | 7620 nM | 5140 nM |  |
| YCNYSKFWYL |  |  |  |  |  |  | IC50 (HLA-A*68:02; [5]): 925 nM; IC50 (HLA-A*02:06; [5]): 1060 nM; IC50 (HLA-A*02:02; [5]): 1110 nM; IC50 (HLA-A*02:01 [2]; [5]): 1710 nM; IC50 (HLA-A*02:03; [5]): 9640 nM |
| TIILNKIVQL | 2670 nM | 30 nM | 1760 nM | 86 nM | 49300 nM |  |  |
| STVDVRNIVT | 475 nM | 1570 nM | 3060 nM | 3050 nM | 11600 nM |  |  |
| DIKYISRDEL | 321 nM | 2060 nM | 2550 nM | 3570 nM | 9580 nM |  |  |
| SICLDYIIV | 2930 nM | 689 nM | 1460 nM | 579 nM | 8650 nM |  |  |
| LTHFNNNENV | 11 nM | 996 nM | 907 nM |  | 7270 nM | 6590 nM |  |
| EQGDIALAL | 800 nM | 4770 nM | 701 nM |  | 11100 nM | 13000 nM |  |
| YVVIVENDNV | 99 nM | 60 nM | 2340 nM | 547 nM | 11000 nM |  |  |
